# In the supplement of paper PMC9112550, “Optimization of the antimicrobial peptide Bac7 by deep mutational scanning” (BMC Biology, 2022):
# Test system: Escherichia coli TOP10
# Test: shrunken log2 fold change of peptide-encoding DNA abundance (4.5 h post-induction vs induction); higher = less antimicrobial activity (less host growth inhibition)
# Conditions: time post-induction: 4.5 h; library: site-saturation at positions 5, 18, 19, 20
# 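Note: peptides expressed intracellularly from a pBAD plasmid library in pooled LB shake-flask culture, induced with 0.3% L-arabinose, DNA abundance read by NGS, three biological replicates, DESeq2 with apeglm shrinkage.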
row,Sequence,shrunken log2 fold change
1,RRIRFRPPRLPRPRPRPLEDPRP,-0.0439
2,RRIRFRPPRLPRPRPRPLEYPRP,-0.474
3,RRIRFRPPRLPRPRPRPLFLPRP,-0.478
4,RRIRFRPPRLPRPRPRPLGIPRP,-0.869
5,RRIRFRPPRLPRPRPRPLHEPRP,0.0931
6,RRIRFRPPRLPRPRPRPLIKPRP,-0.31
7,RRIRFRPPRLPRPRPRPLIYPRP,-0.898
8,RRIRFRPPRLPRPRPRPLKEPRP,-0.273
9,RRIRFRPPRLPRPRPRPLLRPRP,0.0227
10,RRIRFRPPRLPRPRPRPLNAPRP,-0.166
11,RRIRFRPPRLPRPRPRPLPNPRP,0.184
12,RRIRFRPPRLPRPRPRPLRMPRP,0.0542
13,RRIRFRPPRLPRPRPRPLRQPRP,0.0138
14,RRIRFRPPRLPRPRPRPLSYPRP,-0.0166
15,RRIRFRPPRLPRPRPRPLTGPRP,-0.196
16,RRIRFRPPRLPRPRPRPLVPPRP,0.338
17,RRIRFRPPRLPRPRPRPLVVPRP,-0.0929
18,RRIRFRPPRLPRPRPRPLWQPRP,-0.308
19,RRIRFRPPRLPRPRPRPLYCPRP,-0.937
20,RRIRFRPPRLPRPRPRPLYEPRP,-0.664
21,RRIRFRPPRLPRPRPRPLYKPRP,-0.813
22,RRIRFRPPRLPRPRPRPMADPRP,-0.00574
23,RRIRFRPPRLPRPRPRPMAQPRP,-0.337
24,RRIRFRPPRLPRPRPRPMCVPRP,-0.405
25,RRIRFRPPRLPRPRPRPMEHPRP,-0.416

row,Sequence,shrunken log2 fold change
1,RRIRFRPPRLPRPRPRPMFAPRP,0.0307
2,RRIRFRPPRLPRPRPRPMFDPRP,-0.155
3,RRIRFRPPRLPRPRPRPMGCPRP,0.125
4,RRIRFRPPRLPRPRPRPMGGPRP,-0.166
5,RRIRFRPPRLPRPRPRPMGYPRP,-0.226
6,RRIRFRPPRLPRPRPRPMHNPRP,-0.52
7,RRIRFRPPRLPRPRPRPMIIPRP,-0.871
8,RRIRFRPPRLPRPRPRPMKCPRP,-0.695
9,RRIRFRPPRLPRPRPRPMKSPRP,-0.198
10,RRIRFRPPRLPRPRPRPMLAPRP,0.0819
11,RRIRFRPPRLPRPRPRPMMQPRP,-0.297
12,RRIRFRPPRLPRPRPRPMNCPRP,-0.735
13,RRIRFRPPRLPRPRPRPMNDPRP,-0.122
14,RRIRFRPPRLPRPRPRPMNYPRP,-0.582
15,RRIRFRPPRLPRPRPRPMPNPRP,0.0592
16,RRIRFRPPRLPRPRPRPMPSPRP,0.0917
17,RRIRFRPPRLPRPRPRPMQIPRP,-0.147
18,RRIRFRPPRLPRPRPRPMRGPRP,0.664
19,RRIRFRPPRLPRPRPRPMRQPRP,0.0953
20,RRIRFRPPRLPRPRPRPMSSPRP,-0.0482
21,RRIRFRPPRLPRPRPRPMTVPRP,-0.463
22,RRIRFRPPRLPRPRPRPMVWPRP,0.156
23,RRIRFRPPRLPRPRPRPMYGPRP,-0.36
24,RRIRFRPPRLPRPRPRPNCIPRP,-0.342
25,RRIRFRPPRLPRPRPRPNCNPRP,-0.469

row,Sequence,shrunken log2 fold change
1,RRIRFRPPRLPRPRPRPNCSPRP,-0.498
2,RRIRFRPPRLPRPRPRPNEKPRP,0.0854
3,RRIRFRPPRLPRPRPRPNFKPRP,-0.222
4,RRIRFRPPRLPRPRPRPNFSPRP,-0.283
5,RRIRFRPPRLPRPRPRPNFTPRP,-0.0305
6,RRIRFRPPRLPRPRPRPNGRPRP,-0.123
7,RRIRFRPPRLPRPRPRPNILPRP,-0.178
8,RRIRFRPPRLPRPRPRPNINPRP,-0.536
9,RRIRFRPPRLPRPRPRPNITPRP,-0.633
10,RRIRFRPPRLPRPRPRPNIWPRP,-0.224
11,RRIRFRPPRLPRPRPRPNNEPRP,-0.265
12,RRIRFRPPRLPRPRPRPNPVPRP,-0.117
13,RRIRFRPPRLPRPRPRPNRDPRP,-0.0824
14,RRIRFRPPRLPRPRPRPNSDPRP,-0.209
15,RRIRFRPPRLPRPRPRPNSKPRP,-0.464
16,RRIRFRPPRLPRPRPRPNSMPRP,-1.01
17,RRIRFRPPRLPRPRPRPNTWPRP,-0.277
18,RRIRFRPPRLPRPRPRPNWIPRP,-0.426
19,RRIRFRPPRLPRPRPRPNYCPRP,-0.499
20,RRIRFRPPRLPRPRPRPPADPRP,0.789
21,RRIRFRPPRLPRPRPRPPAEPRP,0.606
22,RRIRFRPPRLPRPRPRPPCIPRP,-0.0411
23,RRIRFRPPRLPRPRPRPPCNPRP,-0.284
24,RRIRFRPPRLPRPRPRPPDFPRP,-0.195
25,RRIRFRPPRLPRPRPRPPDPPRP,0.571
